# Tested on: Escherichia coli TOP10
# Test: shrunken log2 fold change of peptide-encoding DNA abundance (4.5 h post-induction vs induction); higher = less antimicrobial activity (less host growth inhibition)
# Settings: time post-induction: 4.5 h; library: site-saturation at positions 5, 18, 19, 20
# 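Further: peptides expressed intracellularly from a pBAD plasmid library in pooled LB shake-flask culture, induced with 0.3% L-arabinose, DNA abundance read by NGS, three biological replicates, DESeq2 with apeglm shrinkage.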
row,Sequence,shrunken log2 fold change
1,RRIRMRPPRLPRPRPRPLIDPRP,0.356
2,RRIRTRPPRLPRPRPRPDHGPRP,-0.0102
3,RRIRPRPPRLPRPRPRPWGVPRP,-0.128
4,RRIRPRPPRLPRPRPRPLFKPRP,-0.348
5,RRIRQRPPRLPRPRPRPQNFPRP,-0.0918
6,RRIRQRPPRLPRPRPRPNCIPRP,0.133
7,RRIRMRPPRLPRPRPRPRNEPRP,0.471
8,RRIRKRPPRLPRPRPRPWFTPRP,-0.00863
9,RRIRTRPPRLPRPRPRPMNLPRP,-0.348
10,RRIRIRPPRLPRPRPRPHPLPRP,-0.516
11,RRIRYRPPRLPRPRPRPGIQPRP,-0.0445
12,RRIRSRPPRLPRPRPRPIVSPRP,0.0431
13,RRIRYRPPRLPRPRPRPTCHPRP,-1.16
14,RRIRDRPPRLPRPRPRPRFRPRP,0.951
15,RRIRFRPPRLPRPRPRPCFIPRP,-0.564
16,RRIRDRPPRLPRPRPRPSGCPRP,0.0451
17,RRIRARPPRLPRPRPRPQPMPRP,0.229
18,RRIRQRPPRLPRPRPRPHQNPRP,-0.246
19,RRIRHRPPRLPRPRPRPRIAPRP,0.0721
20,RRIRWRPPRLPRPRPRPIDSPRP,-0.0713
21,RRIRRRPPRLPRPRPRPTPFPRP,0.632
22,RRIRSRPPRLPRPRPRPGIDPRP,-0.0173

row,Sequence,shrunken log2 fold change
1,RRIRDRPPRLPRPRPRPMVDPRP,-0.0109
2,RRIRLRPPRLPRPRPRPFFQPRP,0.152
3,RRIRKRPPRLPRPRPRPVGEPRP,1.18
4,RRIRFRPPRLPRPRPRPEMVPRP,-0.143
5,RRIRSRPPRLPRPRPRPPLSPRP,0.125
6,RRIRERPPRLPRPRPRPWPRPRP,0.223
7,RRIRPRPPRLPRPRPRPMLNPRP,-0.164
8,RRIRKRPPRLPRPRPRPCMSPRP,-0.0865
9,RRIRNRPPRLPRPRPRPAHYPRP,-0.299
10,RRIRVRPPRLPRPRPRPRDNPRP,-0.109
11,RRIRFRPPRLPRPRPRPYFPPRP,-0.599
12,RRIRARPPRLPRPRPRPEDEPRP,0.182
13,RRIRRRPPRLPRPRPRPVHDPRP,-0.305
14,RRIRMRPPRLPRPRPRPMHDPRP,0.192
15,RRIRSRPPRLPRPRPRPNKWPRP,-0.0551
16,RRIRDRPPRLPRPRPRPWVTPRP,-0.0629
17,RRIRCRPPRLPRPRPRPPVSPRP,0.134
18,RRIRVRPPRLPRPRPRPENYPRP,-0.0159
19,RRIRCRPPRLPRPRPRPTGAPRP,0.419
20,RRIRYRPPRLPRPRPRPLAMPRP,-0.311
21,RRIRNRPPRLPRPRPRPKMKPRP,-0.286
22,RRIRQRPPRLPRPRPRPPMYPRP,-0.269

row,Sequence,shrunken log2 fold change
1,RRIRCRPPRLPRPRPRPAKHPRP,-0.23
2,RRIRMRPPRLPRPRPRPMWIPRP,-0.217
3,RRIRYRPPRLPRPRPRPSQNPRP,-0.874
4,RRIRKRPPRLPRPRPRPPFVPRP,0.209
5,RRIRDRPPRLPRPRPRPIAVPRP,-0.00168
6,RRIRLRPPRLPRPRPRPRVNPRP,-0.155
7,RRIRHRPPRLPRPRPRPQRVPRP,-0.139
8,RRIRHRPPRLPRPRPRPESNPRP,-0.131
9,RRIRHRPPRLPRPRPRPWCKPRP,-0.111
10,RRIRPRPPRLPRPRPRPRCFPRP,0.155
11,RRIRPRPPRLPRPRPRPQWGPRP,0.132
12,RRIRNRPPRLPRPRPRPTNNPRP,-0.545
13,RRIRHRPPRLPRPRPRPTTHPRP,0.0467
14,RRIRDRPPRLPRPRPRPSIWPRP,0.262
15,RRIRKRPPRLPRPRPRPTMIPRP,-0.0569
16,RRIRARPPRLPRPRPRPWGRPRP,0.198
17,RRIRDRPPRLPRPRPRPATIPRP,0.0807
18,RRIRQRPPRLPRPRPRPYHHPRP,-0.186
19,RRIRFRPPRLPRPRPRPYKEPRP,-0.0907
20,RRIRTRPPRLPRPRPRPSSLPRP,-0.0765
21,RRIRLRPPRLPRPRPRPLGEPRP,0.013
22,RRIRIRPPRLPRPRPRPGWKPRP,-0.0134

row,Sequence,shrunken log2 fold change
1,RRIRIRPPRLPRPRPRPSYDPRP,-0.414
2,RRIRVRPPRLPRPRPRPMPAPRP,0.149
3,RRIRMRPPRLPRPRPRPCAMPRP,0.424
4,RRIRKRPPRLPRPRPRPGMWPRP,0.438
5,RRIRWRPPRLPRPRPRPMGYPRP,-0.132
6,RRIRMRPPRLPRPRPRPCTIPRP,-0.263
7,RRIRMRPPRLPRPRPRPNWMPRP,-0.0131
8,RRIRQRPPRLPRPRPRPKWMPRP,-0.131
9,RRIRFRPPRLPRPRPRPIFWPRP,0.192
10,RRIRFRPPRLPRPRPRPKVGPRP,-0.01
11,RRIRCRPPRLPRPRPRPPWLPRP,0.241
12,RRIRFRPPRLPRPRPRPADYPRP,-0.207
13,RRIRIRPPRLPRPRPRPDFIPRP,-0.447
14,RRIRVRPPRLPRPRPRPFKDPRP,-0.166
15,RRIRYRPPRLPRPRPRPTQEPRP,0.0039
16,RRIRARPPRLPRPRPRPQEKPRP,-0.0334
17,RRIRARPPRLPRPRPRPTQNPRP,1.05
18,RRIRARPPRLPRPRPRPHAFPRP,0.231
19,RRIRIRPPRLPRPRPRPTIRPRP,-0.995
20,RRIRTRPPRLPRPRPRPTLTPRP,0.0461
21,RRIRIRPPRLPRPRPRPRNPPRP,-0.0124
22,RRIRWRPPRLPRPRPRPRIFPRP,0.499

row,Sequence,shrunken log2 fold change
1,RRIRPRPPRLPRPRPRPDSMPRP,-0.326
2,RRIRMRPPRLPRPRPRPLVEPRP,2.17
3,RRIRSRPPRLPRPRPRPRKFPRP,0.015
4,RRIRHRPPRLPRPRPRPSPHPRP,-0.39
5,RRIRVRPPRLPRPRPRPEQMPRP,0.212
6,RRIRRRPPRLPRPRPRPYSPPRP,0.00204
7,RRIRTRPPRLPRPRPRPMKHPRP,-0.00108
8,RRIRERPPRLPRPRPRPMSTPRP,-0.516
9,RRIRWRPPRLPRPRPRPLYTPRP,-0.24
10,RRIRERPPRLPRPRPRPIEIPRP,-0.186
11,RRIRSRPPRLPRPRPRPESRPRP,-0.0244
12,RRIRERPPRLPRPRPRPFARPRP,0.102
13,RRIRRRPPRLPRPRPRPHIWPRP,-0.0694
14,RRIRVRPPRLPRPRPRPGPPPRP,0.564
15,RRIRRRPPRLPRPRPRPCNAPRP,-0.105
16,RRIRCRPPRLPRPRPRPPPMPRP,1.08
17,RRIRERPPRLPRPRPRPMMNPRP,-0.122
18,RRIRDRPPRLPRPRPRPICAPRP,0.172
19,RRIRKRPPRLPRPRPRPWLWPRP,0.00796
20,RRIRKRPPRLPRPRPRPNGFPRP,0.49
21,RRIRKRPPRLPRPRPRPGTHPRP,0.213

# From the supplement of paper PMC9112550, “Optimization of the antimicrobial peptide Bac7 by deep mutational scanning” (BMC Biology, 2022)
